Experimental data: PMC3290555

Experiments:
[1] = target: N-terminal domain of murine CNPase (residues -1-160) (mouse); assay: SEC; Superdex 75 10/300 GL; 20 mM Na-HEPES pH 8, 200 mM NaCl, 1 mM DTT; 250 µl at 1.7 mg/ml injected; molecular weight markers run under the same conditions
[2] = target: full-length CNPase construct (residues -1-378), mouse 2',3'-cyclic nucleotide 3'-phosphodiesterase lacking the 22-residue C-terminal tail (mouse); assay: SEC-MALS; Sephadex S-200 column with online light scattering and refractive index detectors; 20 mM Bis-Tris-HCl pH 5.5, 300 mM NaCl, 1% glycerol, 1 mM DTT; monomer-dimer equilibrium

stoichiometry N [1] | stoichiometry N [2] | Substance
2 |  | N-terminal domain of murine CNPase (residues -1-160) (domain or fragment)
 | 2 | full-length CNPase construct (residues -1-378), mouse 2',3'-cyclic nucleotide 3'-phosphodiesterase lacking the 22-residue C-terminal tail (enzyme)
